Results taken from the nanobody polyreactivity screen of Harvey et al. (2022).

Assay: yeast display, Sf9 membrane polyspecificity reagent, FACS + sequencing; frameworks hold sequencing errors
How it was run: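 Genes from sorted yeast were amplified by colony PCR, read by MiSeq 2 × 250 sequencing and filtered on CDR length. These cells carried a synthetic nanobody library in Saccharomyces cerevisiae BJ5465 and were sorted by FACS into low and high (top ~1%) gates on anti-HA and streptavidin fluorescence. Polyreactivity is labelled according to the gate of origin.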

Sequence | polyreactivity (PSR sort gate)
QVQLVESGGGLVQAGGSLRLSCAASGSTFTLYVMGWYRQATGKERELVAAISSNGGRTYYADSVKGRFTISRDNAKNTVYLQMTSLKPEDTAVYYCAKLVSLAGRIYGYWGQGTQVTVSS | high polyreactivity
QVQLVESWGGLVQAGGRLRLSCAASGNTFWDNAMRWYRQAPGKERELVAAIRWSTVSTHYADSVKGRFTISRDNAKNTVYLQMNSLKPEDTAVYDCAATAYYYYRDKYYGYDYWGQGTHVTVSS | low polyreactivity
QVQLVESGGGLLQAGGILRLSCAASGRTFGLYAMRWYRQAPGKERELVAAIRGSAGSTYYADSVKGRFTISRDNAKNTVYLQMNSLKPEDTAVYYCATVGYPSLWYGYGYWGQGTQVTVSS | low polyreactivity
QVQLVESGGGLVQAGGSLRLSCAASGFTLDYYAMGWYRKAPGKERELVAAISFSGGSTYYADSVKGRFTISRDNAKNTVYLQMNSLKPEDTAVYYCAADPQIVWYDYWGQGTQVTVSS | low polyreactivity
QVQLVESGGGLVQAGGSLRLSCAASGSTFYPNAMGWYRQAPGKERELVAAITTSGGSTYYADSVKGRCTISRDNAKNTVYLQMNSLKPEDTAVYYCAAEVRDRGWEPYGPIYDYWGQGTQVTVSS | high polyreactivity
QVQLVESGGGLVQAGGSLRLICAASGPTFYYYAMGWYTQAPGKERELVARISRGGSTNYADSVKGRFTISRDNAKNTVYLQMNSLKAEDTAVYYFAITISYTGGYWGYDYWGQGTQVTVSS | high polyreactivity
QVQLVESGGGLVQAGGSLRLSCAASGSIVDYNAMGGYRQAPGKERELVAAISVNGGNTYYADSVKGRFTISRDYAKNTVYFQMNTLKPEDTAVYYCAADSYGGSKYDYWGQGTQVTLSS | low polyreactivity
QVQLVESGGGLVQAGGSLRLSCAASGTTFAWNTMGWYRQAPGKERELVARISRRSVSTYYADSVKGRFTISRDNAKNTVYLQMNSLKPEDTAVYYCAADYFSYQKYDYWGQGTQVTVSS | low polyreactivity
QVQLVESGGGLVQAGGSLRLSCAASGRTFVYYAMGWYRQAPGKEREFVAAISRSGGHTSYADSVKGRFTISRDNAKNTVYLQMNSLKPEDTAVYYCAAEKRTQPTSREYYWGQGTQVTVSS | high polyreactivity
QVQLVESGGRLVQAGGSLRLSCAPSGFIFRFNAMGWYRQPPGKVSELVARIDWSGGSTYYADSVKGRFTISRENAKYTVYFQMNSLKPEDTAVYYCAAERYFEYSECDYWGQGTQVTVSS | low polyreactivity
QVQLVESGGGLVQAGGSLRVSCAASGISFGHYTMGWYRQATGKERELVATITTSGGRTYYADSVKGRFTISRDNAKNTVYLQMNSLKPEDTAVYYCATLSWYPFEYWGQGTQVTVSS | high polyreactivity
QVQLVESGGGLVQAGGSLRLSCAASGYIFLGYAMGWYRQAPGKERELVAAISSRGGSTYYADSVKGRFTISRDNAKNTVYLQMNSLKPEDTAVYYCAAYRFSDRAAYGYYDRHYYWGQGTQVTVSS | high polyreactivity
QVQLGESGGGLVQAGGSLRLSCAASGRTFYWYDMGWYRQAPGKERELVAAITRSGGSTDYADSVKGRFTISRDNAKNTVYLQMNSLKPEDTAVYYCNADYEVSSQRPAFDYWGQGTQVTVSS | low polyreactivity
QVQLVESGGGLVQAGGSLRLSCAASGITFYHYAMGWYRQAPGKKRELVASITDGGITKYADSVKGRFTISRDNAKYTVYLQMNSQNPEDTAVYYCAAIAYPDIPTYFDYDSDFFYWGQGTQVTVSS | high polyreactivity
QVQLVESGGGLVQAGGSLRLSCAASGLIFGVNAMGLYRQAPGTESELVAAITSRGGSTYYADSVKGRFTISRDNAKNTVYLQMNSLKPEDTAVDYCAAKYAYYEPYSWRPQRTYNYWGQGTQVTVSS | high polyreactivity
QVQLVESGGGLVQAGGSLRLSCAASGRTFNYYPMGWYRQAPGKERELVAAISRSGTPTYYADSVKGRFTISRDNAKNTVYLQMNSLKPEDTAVYYCAAYLVSYPRGNYIRYDYWGQGTQVTVSS | low polyreactivity
QDQLVESGGGLVQAGGSLRLSCAASGGIIVSYAMGWYRQAPGKEMQLVAAITSGGGTSYSDSVKGRFTISRDNAKNTVYLQMNSLKPEDTAVYYCNADGYLAERFVIRLDEYRHYDYWGQGTQVTVSS | low polyreactivity
QVKLQESGDGLVQAGGSLRLSSAASGTIFSDYGMGGYRQAPGKERELLAGISDGCNTNYTDSVKGRFTISRDNAHRVSADEQPETGGYRGVLLRGSERWLLFFVYWGQGTQVTVSS | high polyreactivity
QEQLQESGGGLVQAGGSQSLSCAASGIIFDWFFMGWYRQAPGREREFVAAITYGATTNYADSVKGRFTISRDNGKITVYLQMNSLKPEDCAVYYCAAASPLYWVDDFESGWRYYYWGQGTQVTVSS | low polyreactivity
QVQLVESGGGLVQAGGSLRLSCAASGNIFNGNAMGWYRQAPGKERELVAAIRGNGGITYYADSVKGRFTISRDNAKNTVYLQMNSLKPEDTAVYYCAVRSAWVYGIGRYYWGQGTQVTVSS | high polyreactivity
QVQLVESGGGLVQAGGSLRLSCAASGLTFSQNAMGWYRQAPGKERELVAAITRSGSTTHYADSVKGRFTISRDNAKNTVYLQMNSLKPEDTAVYYCAAVAFLTRYYYWGQGTQVTVSS | high polyreactivity
QVQLVEAGGGLVQAGGSLRLSCAASGYTFGPNAMGWYRQAPGKEREFVAAISWSGTSTYYADYVKGRFTISRDNAKNTDYLQMNSLKPEDTAVYYCAARSYRYVSRREYWGQGTLVTVSS | high polyreactivity

Sequence | polyreactivity (PSR sort gate)
QVQLVESGGGLVQAGGSLRLSCAASGRTSIYNAMGWYRQAPGKDREFVAAITSSGGSTYYADSVKGRFTISRDNAKNTVYLQMNSLKPEDTAVYYCAARPAYVYAYYRYGYWGQGTQVTVSS | high polyreactivity
QVQLVESGGGLVQAGGSLRLSCAASGRIFRGYAMGWYRQAPGKERELVARITSSGSTNYADSVKGRFTISRDNAKNTVYLQMNSLKPEDTAVYYCAADKYYWGTGVWMDYWGQGTQVTVSS | high polyreactivity
QVQLVESGGGLVQAGGSLRLSCAASGSTFYVNDMGWYRQAPGKERELVATISSGSSTYYADSVKGRFTISRDNAKNTVYFQMNSLKPEDTAVYYCAADGVAEEGFDAPYDYWGQGTQVTVSS | low polyreactivity
QVQLVESGGGLVQAGGSLRLSCAASGLISRRNAMGWYRQAPGKERELVAAISTGSSTNYADSVKGRFTISRDNAKNTVYLQMNSLKPEDTAVYYCAATQYWWSTLGIRDDYWGQGTQVTVSS | low polyreactivity
QVQLVESGGGLVQAGGRLRLRCAASGFTFRYNAMGCNRQAPGKERELVATISSGASTYYADSVKGRFTISRDNAKNTVYFQMNSLIPVDSAVYYCAADDLGLWFYSGVDDYYYCGQGTQVTVSS | low polyreactivity
QVQLVESGGGLVQAGGSLRLSCAASGFIFDSNPIGWYRQAPWKEREVVAAISSSGGSTYYADSVKGRFTISRDNAKNTVYLQMKSLKPEDTAVYYCGAESQRFISSSEVYWGQGTQVTVSS | low polyreactivity
QVQLVESGGGLVQAGGSLRLSCAASGFIFYQYAMGWYRQAPGKERELVAVISRTGSTSYADSVKGRFTISRDNAKNTVYLQMNSLKPEDTAVYYCAARYYFYDYWGQGSQVTVSS | high polyreactivity
QVQLVESGGGLVQAGGSLRLSCAASGSIFAYYAMGWYRQAPGKEMELVAAITRGGTTYYADSVKGRFTISRDNAKNTVYLQMNSLKPEDTAVYYCAVYYYSGTAGYRYGYWGQATQVTVSS | high polyreactivity
QVQLVESGGGLVQAGGSLRLSCSASGRTFYGNAMGWYRQAPGKERELVAAISWSGGSTYYADSVKGRFPISRDNAKNTVYLQMISLKPEYTAVYYCNADYFAWDLMYYWGQGTQVTVSS | low polyreactivity
QVQLVESGGGLVQAGGSLRLSCAASGRTFRRYAMGWYRQAPGKERELVAAISRNGGSTYYADSVKGRFTISRDNAKNTVYLQMNSLKPEDTAVYYCNAVTYGSYYYWGQGTQVTVSS | high polyreactivity
QVQLVESGGGLVQAGGTLRLSCSASGIISTYYAMGWYRQAPGKERELVAAITSGGSTYYADSVKGRFTISRDNAKNTVYLQMNSLKPEDTAVYYCATRRIYKWYRYYYWGQCTQVTVSS | high polyreactivity
QVQLVESGGGLVQAGGSLRLSCAASGRTINGNTMGWYRQAPGKERELVAVIDWSGGSTYYADSVKGRFTISRDTAKNTVYLQMNSLKPEDTAVYFCATVSGYAYYYWGQGTQVTVSS | low polyreactivity
QVQLVESGGGLVQAGGSLRLICAASGRIFSRNAMGWYRQAPGKERELVAGISARGGRTYYADSVKGRFTISRDNAKNTVYLQMNSLKPEDTAVYYCNARTGYQDGTYGNDYWGQGTQVTVSS | high polyreactivity
QVQLVESGGGLVQAGGSLRLSCAPSGRIFRYYAMGWYRQAPGKERELVATIRSGGSTNYADSVKGRFTISRDNEKNTVYLQMNSLKPEDTAVYYCAATGGILSTYDYWGQVTQVTVSS | high polyreactivity
QVQLVESGGGLVQAGGSLRLSCAASGFTFRFYALGWYRQAPGKERELVAAISRRGGTTYYADSVKGRFTISRDNAKNTVYLQMNSLKPEDTAVYYCNKDWTYEHGYWGQGTQVTVSS | high polyreactivity
QVQLVESGGGLVQAGGSLRLTCAASGGIFGINAMRWYRQAPGKERELVAAITSGDSTNYADSVKGRFTISRDNAKNTVYLQMNSLKPEDTAVYYCNADPDTYVSTITHDSWGQGTQVTVSS | low polyreactivity
QVQLVESGGGLVQAGGSLRLSCAASGRTFAYYAMGWYRQAPGKERELVATITWNGGSTYYADSVKGRFTISRDNAKNTVYLQMNSLKPEDTAVYYCAVRLWFDYNYWGQGTQVTVSS | low polyreactivity
QVQLVESGGGLVQAGGSLRLSCAASGLTFAYYGMGWYRQAPGKEMELVAAITSSGGSTYYADSVKGRFTISRDNAKNTVYLQMNSLKPEDTAVYYCAAFVRQYGFDYWGQGTQVTVSS | low polyreactivity
QVQLVESGGGLVQAGGSLRLSCAASGFIIGSYAMGWYRQAPGKERELVAAISRRTTNTYYADSVKGRFTISRDNAKNTVYLQMNSLKPEDTAVYYCARVTWYESDYWGQGTQVTVSS | high polyreactivity
QVQLEESGGGLVQAGGRLRLSCAASGRTFGRYAMGWDREPPGKERELVAAIRSGGSTYYADSVKGRLTISRDNAKNTVYFQMNSVKQADTAVYYCAADIARHLTGFAYYGLDYWGQGTQVTVSS | low polyreactivity
QDQLVESGGGIVQAGGRLRLSCAASGSIFRYYAMGWYRQAPGKERDLVAAINWDGGSTYYADSVKGRFTISRDNAKNTVYLQMNSLKPEDTAVYYCATTSRVYAYGYRTSNYWGQGTQVTVSS | high polyreactivity
